The text below walks through data of paper PMC4358367, “Structural basis of diverse membrane target recognitions by ankyrins” (eLife, 2014).

B1: AnkB_repeats (24 ANK repeats of human 220 kDa ankyrin-B, residues 28–873) [human] / Cav1.3 peptide (mouse Cav1.3 residues 2134–2166), FITC-labeled [modified: FITC label (position not stated); FITC label (position not stated)] [mouse] (parent complex)
chain 1: KSDSNASFLRAARAGNLDKVVEYLKGGIDINTCNQNGLNALHLAAKEGHVGLVQELLGRGSSVDSATKKGNTALHIASLAGQAEVVKVLVKEGANINAQSQNGFTPLYMAAQENHIDVVKYLLENGANQSTATEDGFTPLAVALQQGHNQAVAILLENDTKGKVRLPALHIAARKDDTKSAALLLQNDHNADVQSKMMVNRTTESGFTPLHIAAHYGNVNVATLLLNRGAAVDFTARNGITPLHVASKRGNTNMVKLLLDRGGQIDAKTRDGLTPLHCAARSGHDQVVELLLERGAPLLARTKNGLSPLHMAAQGDHVECVKHLLQHKAPVDDVTLDYLTALHVAAHCGHYRVTKLLLDKRANPNARALNGFTPLHIACKKNRIKVMELLVKYGASIQAITESGLTPIHVAAFMGHLNIVLLLLQNGASPDVTNIRGETALHMAARAGQVEVVRCLLRNGALVDARAREEQTPLHIASRLGKTEIVQLLLQHMAHPDAATTNGYTPLHISAREGQVDVASVLLEAGAAHSLATKKGFTPLHVAAKYGSLDVAKLLLQRRAAADSAGKNGLTPLHVAAHYDNQKVALLLLEKGASPHATAKNGYTPLHIAAKKNQMQIASTLLNYGAETNIVTKQGVTPLHLASQEGHTDMVTLLLDKGANIHMSTKSGLTSLHLAAQEDKVNVADILTKHGADQDAHTKLGYTPLIVACHYGNVKMVNFLLKQGANVNAKTKNGYTPLHQAAQQGHTHIINVLLQHGAKPNATTANGNTALAIAKRLGYISVVDTLKVVTEEVTTTTTTITEKHKLNVPETMTEVLDVSDEEGDDTMTGDGGEYLRPEDLKELGDD
chain 2: ELQDFGPGYSDEEPDPGREEEDLADEMICITTL

The variants in this assay derive from B1. Put plainly: fluorescence polarisation; parent: 3.3e+03 nM.
Consider chain 1 I240Q, chain 1 L273Q, for which the Kd (as a rule, the constant that tells how readily two partners part at equilibrium) turned out to be 8.2 µM.
Consider chain 1 L339Q, chain 1 F372Q, chain 1 L405Q, for which the Kd was 4 µM.
Turning to chain 1 F104Q, chain 1 F137Q, the Kd stood at 3.3 µM.
